Measured values published in PMC10040874.

B1: Drosophila melanogaster PRL (wild-type) [D. melanogaster] / Drosophila melanogaster CNNM CBS-pair domain, GST-tagged [D. melanogaster] (parent)
chain 1: MSITMRQKDLRPAPALIEYKGMKFLITDRPSDITINHYIMELKKNNVNTVVRVCEPSYNTDELETQGITVKDLAFEDGTFPPQQVVDEWFEVLKDKYQQNPEACVAVHCVAGLGRAPVLVALALIELGLKYEAAVEMIRDKRRGAINAKQLSFLEKYKPKARLKHKNGHKNSCSVQ
chain 2: VNIISGALELRKKTVADVMTHINDAFMLSLDALLDFETVSEIMNSGYSRIPVYDGDRKNIVTLLYIKDLAFVDTDDNTPLKTLCEFYQNPVHFVFEDYTLDIMFNQFKEGTIGHIAFVHRVNNEGDGDPFYETVGLVTLEDVIEELIQAEIVDE

Variants of: B1
Experiment: ITC
Conditions: with Drosophila melanogaster CNNM CBS-pair domain, 16 µM CNNM titrated with 160 µM PRL
chain 1 C109D was tested, and the Kd was 0.6 µM.
In the case of chain 1 R143E, the Kd is reported as 7.5 µM.
